This note sets out measurements from the supplement of paper PMC7877785.

The nature of this data set: self-splicing fitness, log relative to wild type (ln ratio); higher = more splicing; Tetrahymena group I intron in knt gene, E. coli kanamycin selection, DiMSum; sequences stand for … in CUCUCU…GGAGGGAAAAGUUAUCAGGCAUGCACCUGGUAGCUAGUCUUUAAACCAAUAGAUUGCAUCGGUUUAAAAGGCAAGACCGUCAAAUUGCGGGAAAGGGGUCAACAGCCGUUCAGUACCAAGUCUCAGGGGAAACUUUGAGAUGGCCUUGCAAAGGGUAUGGUAAUAAGCUGACGGACAUGGUCCUAACCACGCAGCCAAGUCCUAAGUCAACAGAUCUUCUGUUGAUAUGGAUGCAGUUCACAGACUAAAUGUCGGUCGGGGAAGAUGUAUUCUUCUCAUAAGAUAUAGUCGGACCUCUCCUUAAUGGGAGCUAGCGGAUGAAGUGAUGCAACACUGGAGCCGCUGGGAACUAAUUUGUAUGCGAAAGUAUAUUGAUUAGUUUUGGAGUACUCGUGGUCG
The method, boiled down:
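A randomised library covering all eight P1ex-region intron nucleotides was built with the intron in the knt kanamycin-resistance gene on pET-22b(+) and held in E. coli BL21(DE3). Cells were grown overnight at 37°C or 30°C on LB agar, with or without 25 μg/mL kanamycin, plus 100 μg/mL carbenicillin, 50 μM IPTG and 0.2% rhamnose, and pooled colonies were amplicon-sequenced on an Illumina HiSeq 2500. DiMSum fitness is the error-weighted combination of wild-type-normalised replicate fold changes, kanamycin versus none.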

± gives the uncertainty stated by the source.

Turning to CUCCAGCAAUAUUACGGUCA, the “self-splicing fitness (ln)” value was -2.86 ± 0.13 (30 °C) and -1.82 ± 0.13 (37 °C).

Regarding CUCCAGCAAUAUUACGGUUA, the “self-splicing fitness (ln)” value is, setting by setting: (30 °C) -3.03 ± 0.18; (37 °C) -2.45 ± 0.16.

As to CUCCAGCAAUAUUACGUACC, the “self-splicing fitness (ln)” value was -3.31 ± 0.29 (30 °C) and -1.19 ± 0.32 (37 °C).

Consider CUCCAGCAAUAUUACGUAUC, for which the “self-splicing fitness (ln)” value by setting is: (30 °C) -3.01 ± 0.16; (37 °C) -2.73 ± 0.23.

For the sequence CUCCAGCAAUAUUACGUCAC, the “self-splicing fitness (ln)” value is -3.88 ± 0.26 (30 °C) and -2.69 ± 0.29 (37 °C).

In the case of CUCCAGCAAUAUUACGUUCG, the “self-splicing fitness (ln)” value is -3.41 ± 0.13 (30 °C) and -2.39 ± 0.17 (37 °C).

Turning to CUCGAGCAAUAUUACGAAUG, the “self-splicing fitness (ln)” value runs as follows: (30 °C) -1.91 ± 0.14; (37 °C) -1.15 ± 0.17.

As to CUCGAGCAAUAUUACGACGU, the “self-splicing fitness (ln)” value was -3.11 ± 0.14 (30 °C) and -1.59 ± 0.14 (37 °C).

As to CUCGAGCAAUAUUACGAUCA, under “30 °C”, the “self-splicing fitness (ln)” value is -2.04 ± 0.4.

As to CUCGAGCAAUAUUACGCAAC, the “self-splicing fitness (ln)” value (30 °C) is -3.47 ± 0.49 and the “self-splicing fitness (ln)” value (37 °C) is -1.71 ± 0.31.

As for CUCGAGCAAUAUUACGCCGC, the “self-splicing fitness (ln)” value (37 °C) is -2.12 ± 0.4.

Turning to CUCGAGCAAUAUUACGCCGG, the “self-splicing fitness (ln)” value was -3.32 ± 0.43 (30 °C) and -1.17 ± 0.34 (37 °C).

On to CUCGAGCAAUAUUACGCCGU, for which the “self-splicing fitness (ln)” value (37 °C) is -1.79 ± 0.26.

Take CUCGAGCAAUAUUACGCGCC: the “self-splicing fitness (ln)” value was -2.53 ± 0.19 (30 °C) and -2.12 ± 0.37 (37 °C).

Consider CUCGAGCAAUAUUACGCGCU, for which the “self-splicing fitness (ln)” value runs as follows: (30 °C) -3.66 ± 0.22; (37 °C) -2.69 ± 0.23.

Regarding CUCGAGCAAUAUUACGGGAA, the “self-splicing fitness (ln)” value by setting is: (30 °C) -3.85 ± 0.35; (37 °C) -2.42 ± 0.23.

Consider CUCGAGCAAUAUUACGGGAC, for which the “self-splicing fitness (ln)” value is -3.8 ± 0.24 (30 °C) and -2.41 ± 0.27 (37 °C).

Turning to CUCGAGCAAUAUUACGGGAG, the “self-splicing fitness (ln)” value (37 °C) is -1.11 ± 0.22.

As for CUCGAGCAAUAUUACGUAAG, the “self-splicing fitness (ln)” value (30 °C) was -2.81 ± 0.17 and the “self-splicing fitness (ln)” value (37 °C) is -1.26 ± 0.18.

As to CUCGAGCAAUAUUACGUCGG, the “self-splicing fitness (ln)” value was -1.37 ± 0.15 (30 °C) and -0.674 ± 0.21 (37 °C).

In the case of CUCGAGCAAUAUUACGUUAA, the “self-splicing fitness (ln)” value runs as follows: (30 °C) -3.68 ± 0.2; (37 °C) -2.53 ± 0.17.

For CUCGAGCAAUAUUACGUUUA, the “self-splicing fitness (ln)” value runs as follows: (30 °C) -3.22 ± 0.41; (37 °C) -3.05 ± 0.4.

Consider CUCGAGCAAUAUUACGUUUG, for which the “self-splicing fitness (ln)” value reads like this: (30 °C) -3.74 ± 0.24; (37 °C) -2.11 ± 0.16.

In the case of CUCUAGCAAUAUUACGACGA, the “self-splicing fitness (ln)” value (30 °C) is -2.13 ± 0.22 and the “self-splicing fitness (ln)” value (37 °C) was -0.928 ± 0.16.

Regarding CUCUAGCAAUAUUACGAGAG, the “self-splicing fitness (ln)” value reads like this: (30 °C) -2.9 ± 0.18; (37 °C) -1.69 ± 0.2.

On to CUCUAGCAAUAUUACGAGGG, for which the “self-splicing fitness (ln)” value runs as follows: (30 °C) -3.28 ± 0.22; (37 °C) -1.45 ± 0.18.

As for CUCUAGCAAUAUUACGAGUA, the “self-splicing fitness (ln)” value (37 °C) is -1.18 ± 0.21.

For CUCUAGCAAUAUUACGAGUU, the “self-splicing fitness (ln)” value is, setting by setting: (30 °C) -3.44 ± 0.38; (37 °C) -3.55 ± 0.42.

Take CUCUAGCAAUAUUACGAUAG: the “self-splicing fitness (ln)” value was -3.88 ± 0.2 (30 °C) and -3.58 ± 0.28 (37 °C).

In the case of CUCUAGCAAUAUUACGAUCA, the “self-splicing fitness (ln)” value runs as follows: (30 °C) -2.28 ± 0.23; (37 °C) -2.58 ± 0.33.

Regarding CUCUAGCAAUAUUACGAUGU, the “self-splicing fitness (ln)” value is, setting by setting: (30 °C) -3.53 ± 0.22; (37 °C) -2.92 ± 0.25.

Turning to CUCUAGCAAUAUUACGCAAU, the “self-splicing fitness (ln)” value (37 °C) was -3.09 ± 0.38.

For the sequence CUCUAGCAAUAUUACGCAGC, for the setting “30 °C”, the “self-splicing fitness (ln)” value is -3.2 ± 0.25.

Regarding CUCUAGCAAUAUUACGCCAU, the “self-splicing fitness (ln)” value (37 °C) is -3.56 ± 0.33.

With CUCUAGCAAUAUUACGCCCG, the “self-splicing fitness (ln)” value (37 °C) was -0.832 ± 0.42.

For the sequence CUCUAGCAAUAUUACGCGAG, the “self-splicing fitness (ln)” value (30 °C) is -3.63 ± 0.25 and the “self-splicing fitness (ln)” value (37 °C) was -3.28 ± 0.37.

For CUCUAGCAAUAUUACGCGAU, the “self-splicing fitness (ln)” value (30 °C) was -3.29 ± 0.17 and the “self-splicing fitness (ln)” value (37 °C) was -2.88 ± 0.19.

For CUCUAGCAAUAUUACGCUCA, the “self-splicing fitness (ln)” value (30 °C) was -1.32 ± 0.3 and the “self-splicing fitness (ln)” value (37 °C) was -3.25 ± 0.37.

With CUCUAGCAAUAUUACGCUCU, the “self-splicing fitness (ln)” value (30 °C) is -3.22 ± 0.19 and the “self-splicing fitness (ln)” value (37 °C) was -3.77 ± 0.31.

Turning to CUCUAGCAAUAUUACGCUUA, the “self-splicing fitness (ln)” value by setting is: (30 °C) -4 ± 0.37; (37 °C) -3.06 ± 0.27.

As for CUCUAGCAAUAUUACGCUUG, the “self-splicing fitness (ln)” value reads like this: (30 °C) -3.57 ± 0.24; (37 °C) -3.45 ± 0.42.

Consider CUCUAGCAAUAUUACGGCAC, for which the “self-splicing fitness (ln)” value (30 °C) was -2.61 ± 0.26.

As for CUCUAGCAAUAUUACGGCUC, the “self-splicing fitness (ln)” value (30 °C) was -3.83 ± 0.22 and the “self-splicing fitness (ln)” value (37 °C) was -2.09 ± 0.21.

Regarding CUCUAGCAAUAUUACGGGAA, the “self-splicing fitness (ln)” value (30 °C) is -2.54 ± 0.14 and the “self-splicing fitness (ln)” value (37 °C) was -1.11 ± 0.11.

On to CUCUAGCAAUAUUACGGGAG, for which the “self-splicing fitness (ln)” value (30 °C) is -3.78 ± 0.19 and the “self-splicing fitness (ln)” value (37 °C) is -2.26 ± 0.19.

Turning to CUCUAGCAAUAUUACGGUGA, the “self-splicing fitness (ln)” value runs as follows: (30 °C) -3.56 ± 0.21; (37 °C) -1.8 ± 0.2.

Turning to CUCUAGCAAUAUUACGGUUC, the “self-splicing fitness (ln)” value runs as follows: (30 °C) -2.69 ± 0.17; (37 °C) -2.46 ± 0.29.

On to CUCUAGCAAUAUUACGUAGC, for which the “self-splicing fitness (ln)” value by setting is: (30 °C) -3.51 ± 0.37; (37 °C) -3.53 ± 0.46.

On to CUCUAGCAAUAUUACGUUUC, for which the “self-splicing fitness (ln)” value by setting is: (30 °C) -5.02 ± 0.45; (37 °C) -2.62 ± 0.19.

For CUGAAGCAAUAUUACGAAGA, the “self-splicing fitness (ln)” value runs as follows: (30 °C) -2.5 ± 0.36; (37 °C) -0.888 ± 0.25.

Regarding CUGAAGCAAUAUUACGAAGU, the “self-splicing fitness (ln)” value (30 °C) was -3.58 ± 0.2 and the “self-splicing fitness (ln)” value (37 °C) is -2.77 ± 0.41.

Consider CUGAAGCAAUAUUACGACAC, for which the “self-splicing fitness (ln)” value (30 °C) was -2.05 ± 0.32.

As for CUGAAGCAAUAUUACGACGG, the “self-splicing fitness (ln)” value is -0.289 ± 0.15 (30 °C) and -0.879 ± 0.14 (37 °C).

In the case of CUGAAGCAAUAUUACGAUCA, the “self-splicing fitness (ln)” value (30 °C) is -1.68 ± 0.13 and the “self-splicing fitness (ln)” value (37 °C) is -1.53 ± 0.13.

For CUGAAGCAAUAUUACGCCGU, the “self-splicing fitness (ln)” value runs as follows: (30 °C) -2.92 ± 0.31; (37 °C) -2.4 ± 0.3.

Regarding CUGAAGCAAUAUUACGCGCG, the “self-splicing fitness (ln)” value was 0.18 ± 0.092 (30 °C) and -0.0678 ± 0.075 (37 °C).

For CUGAAGCAAUAUUACGCUAA, the “self-splicing fitness (ln)” value (37 °C) is -2.45 ± 0.32.

As to CUGAAGCAAUAUUACGGACG, the “self-splicing fitness (ln)” value (30 °C) is 0.0263 ± 0.084 and the “self-splicing fitness (ln)” value (37 °C) turned out to be 0.166 ± 0.1.

In the case of CUGAAGCAAUAUUACGGAGC, the “self-splicing fitness (ln)” value (37 °C) is -0.931 ± 0.49.

CUGAAGCAAUAUUACGGAGU: the “self-splicing fitness (ln)” value reads like this: (30 °C) -3.2 ± 0.37; (37 °C) -2.33 ± 0.26.

Regarding CUGAAGCAAUAUUACGGCCG, the “self-splicing fitness (ln)” value reads like this: (30 °C) -0.134 ± 0.2; (37 °C) 0.451 ± 0.27.

Turning to CUGAAGCAAUAUUACGGUUC, the “self-splicing fitness (ln)” value reads like this: (30 °C) -3.05 ± 0.18; (37 °C) -3.5 ± 0.3.

Turning to CUGAAGCAAUAUUACGUCAG, the “self-splicing fitness (ln)” value by setting is: (30 °C) -4.14 ± 0.2; (37 °C) -1.46 ± 0.14.

As for CUGAAGCAAUAUUACGUCGA, the “self-splicing fitness (ln)” value was -2.2 ± 0.17 (30 °C) and -1.57 ± 0.23 (37 °C).
